Data on 1 protein can be found in publication PMC10700182, “A Bacterial Quorum Sensing Regulated Protease Inhibits Host Immune Responses by Cleaving Death Domains of Innate Immune Adaptors” (Advanced Science, 2023).

This data set concerns the molecule itself. The data set can be described thus: native gel or EMSA. A general note: A gel shift assay detects complexes by their altered migration in electrophoresis.

B1: Myd88 DD^20-117-SNAP (domain or fragment)
chain: LPLAALNMRVRRRLSLFLNVRTQVAADWTALAEEMDFEYLEIRQLETQADPTGRLLDAWQGRPGASVGRLLELLTKLGRDDVLLELGPSIEEDCQKYI
modifications: benzylguanine dye (BG-647 or BG-488, AlexaFluor) on the SNAP tag
notes: also called MyD88 Death domain; MyD88 DD SNAP; source: E. coli BL21(DE3), purified (Ni-NTA agarose)
Consider B1, for which the binding result is given as “binds”.
